Experimental data reported in patent US20240115603A1 (Zymeworks, published 2024).
Where a chain is given by its changes, count along the chain named.

T1: G-CSFR(Ig-CRH)E design 9, purified, tag cleaved (human, UniProt Q99062 26-331)
T1 construct: SPR protein; also called Design 9 G-CSFR(Ig-CRH)E
T1 chain: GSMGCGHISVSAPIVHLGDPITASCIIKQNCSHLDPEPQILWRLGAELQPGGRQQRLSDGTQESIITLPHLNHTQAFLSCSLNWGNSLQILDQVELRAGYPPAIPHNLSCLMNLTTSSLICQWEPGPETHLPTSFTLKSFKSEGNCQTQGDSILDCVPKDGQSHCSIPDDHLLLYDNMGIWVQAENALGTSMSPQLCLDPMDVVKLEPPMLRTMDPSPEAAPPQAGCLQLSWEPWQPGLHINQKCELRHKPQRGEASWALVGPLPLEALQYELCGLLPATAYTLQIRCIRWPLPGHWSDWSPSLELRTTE

T2: G-CSFR(Ig-CRH)E design 30, purified, tag cleaved (human, UniProt Q99062 26-331)
T2 construct: also called Design 30 G-CSFR(Ig-CRH)E
T2 chain: T1 chain with E143R, D170K, D176Q

T3: G-CSFR(Ig-CRH)E design 34, purified, tag cleaved (human, UniProt Q99062 26-331)
T3 construct: SPR protein; also called Design 34 G-CSFR(Ig-CRH)E
T3 chain: T1 chain with D170K, D176Q

T4: G-CSFR(Ig-CRH)E design 35, purified, tag cleaved (human, UniProt Q99062 26-331)
T4 construct: SPR protein; also called Design #35 G-CSFR(Ig-CRH)E
T4 chain: T1 chain with D169R, D170K, L173E, D176E

T5: G-CSFR(Ig-CRH)E design 304, purified, tag cleaved (human, UniProt Q99062 26-331)
T5 construct: SPR protein; also called Design 304 G-CSFR(Ig-CRH)E
T5 chain: T1 chain with R43E, E95K, E143R, D170K, D176Q

T6: G-CSFR(Ig-CRH)E design 307, purified, tag cleaved (human, UniProt Q99062 26-331)
T6 construct: SPR protein; also called Design 307 G-CSFR(Ig-CRH)E
T6 chain: T1 chain with R43E, E143R, D169R, D170K, D176Q, D199K, D202K, R290E

B1: WT G-CSF, purified, tag cleaved (ligand)
chain: TPLGPASSLPQSFLLKCLEQVRKIQGDGAALQEKLCATYKLCHPEELVLLGHSLGIPWAPLSSCPSQALQLAGCLSQLHSGLFLYQGLLQALEGISPELGPTLDTLQLDVADFATTIWQQMEELGMAPALQPTQGAMPAFASAFQRRAGGVLVASHLQSFLEVSYRVLRHLAQAAAENLYFQ
notes: also called G-CSFWT
B2: G-CSFE design 304, purified, tag cleaved (ligand)
chain: B1 chain with E46R, L108K, D112R, R147E
notes: also called 304 G-CSF
B3: G-CSFE design 307, purified, tag cleaved (ligand)
chain: B1 chain with S12E, K16D, E19K, E46R
notes: also called 307 G-CSF
B4: WT G-CSFR(Ig-CRH), purified, tag cleaved (receptor)
chain: T1 chain with E143R, D169R, D170K, D176Q
notes: also called G-CSFRWT; wild type G-CSFR ECD

Columns and labels:
[1] = molecular target: T1, G-CSFR(Ig-CRH)E design 9, purified, tag …; test: SPR (Biacore T200)
[2] = molecular target: T2, G-CSFR(Ig-CRH)E design 30, purified, …; test: SPR (Biacore T200)
[3] = molecular target: T3, G-CSFR(Ig-CRH)E design 34, purified, …; test: SPR (Biacore T200)
[4] = molecular target: T2, G-CSFR(Ig-CRH)E design 30, purified, …; test: SPR (Biacore T200), WT G-CSF vs design receptor; KD relative to WT:WT control (larger = weaker)
[5] = molecular target: T4, G-CSFR(Ig-CRH)E design 35, purified, …; test: as above
[6] = molecular target: T1, G-CSFR(Ig-CRH)E design 9, purified, tag …; test: SPR (Biacore T200), WT G-CSF vs design receptor; steady-state derived KD relative to steady-state WT:WT KD (larger = weaker)
[7] = molecular target: T3, G-CSFR(Ig-CRH)E design 34, purified, …; test: as above
[8] = molecular target: B4; test: SPR (Biacore T200), WT G-CSFR(Ig-CRH) amine-coupled
[9] = molecular target: T5, G-CSFR(Ig-CRH)E design 304, purified, …; test: SPR (Biacore T200), G-CSFR(Ig-CRH)E amine-coupled, G-CSFE injected; KD relative to WT:WT control (larger = weaker)
Procedure: The SPR binding assays were carried out on a Biacore T200 instrument (GE Healthcare, Mississauga, ON, Canada) with PBS-T (PBS+0.05% (v/v) Tween 20) running buffer at a temperature of 25° C. CMS Series S sensor chip, Biacore amine coupling kit (NHS, EDC and 1 M ethanolamine), and 10 mM sodium acetate buffers were all purchased from GE Healthcare. PBS running buffer with 0.05% Tween20 (PBS-T) was purchased from Teknova Inc. (Hollister, CA).
(§1) To determine binding affinity of G-CSFE to G-CSFRE the G-CSFRE mutant was captured by standard amine coupling as described by the manufacturer (GE LifeSciences). Briefly, immediately after EDC/NHS activation, a 5 μg/mL solution of G-CSFRE in 10 mM NaOAc, pH 5.0, was injected at a flow rate of 5 μL/min until a receptor density of ˜700-900 RU was reached. The remaining active groups were quenched by a 420 s injection of 1 M ethanolamine hydrochloride-NaOH pH 8.5 at 10 μL/min. Using single-cycle kinetics, six concentrations of a two-fold dilution series of the corresponding G-CSFE mutant starting at 200 nM with a blank buffer control were sequentially injected at 25 μL/min for 300s with a 1800s dissociation phase, resulting in a set of sensorgrams with a buffer blank reference. The same sample titration was also performed on a reference cell with no variants captured. The chip was regenerated to prepare for the next injection cycle by one pulse of 10 mM glycine/HCl, pH 2.0, for 30 s at 30 μL/min.
(§2) Double-referenced sensorgrams from duplicate or triplicate repeat injections were analyzed using Biacore™ T200 Evaluation Software v3.0 and fit to the 1:1 Langmuir binding model.

[10] = molecular target: T6, G-CSFR(Ig-CRH)E design 307, purified, …; test: SPR (Biacore T200), G-CSFR(Ig-CRH)E amine-coupled, G-CSFE injected; steady-state derived KD relative to steady-state WT:WT KD
Procedure: as §1, §2
(§3) Kinetic-derived affinity constants (KD) where obtained by fitting the association and dissociation phases of the curves. […] For the cases in which the kinetic parameters could not be fit an attempt was made to derive a steady state affinity constant.

[11] = molecular target: B1; test: SPR (Biacore T200, 25 C), kinetic fit, 1:1 Langmuir; range over independent experiments; lower end of the range over the WT:WT runs
Procedure: The SPR binding assays were carried out on a Biacore T200 instrument (GE Healthcare, Mississauga, ON, Canada) with PBS-T (PBS+0.05% (v/v) Tween 20) running buffer at a temperature of 25° C. […] Designs were assessed in three different immobilization orientations.
as §2, §3

## B1
[1]
  fold weaker affinity (vs WT:WT): 700 fold
[2]
  fold weaker affinity (vs WT:WT): 700 fold
[3]
  fold weaker affinity (vs WT:WT): 700 fold
[4]
  KD fold change (vs WT:WT): 774 fold
[5]
  KD fold change (vs WT:WT): 19 fold
[6]
  KD fold change (vs WT:WT): 8810 fold
[7]
  KD fold change (vs WT:WT): 4260 fold

## B2
[8]
  binding result: no binding
[9]
  KD fold change (vs WT:WT): 6.5 fold

## B3
[8]
  binding result: no binding
[10]
  KD fold change (vs WT:WT): 0.6 fold

## B4
[11]
  Kd: 1.8 to 2.5 nM
